The source of these data is PMC5641120, “Small-molecule inhibitors of PD-1/PD-L1 immune checkpoint alleviate the PD-L1-induced exhaustion of T-cells” (Oncotarget, 2017).

This data set has as its system PD-1/sPD-L1. Put plainly: PD-1/sPD-L1 effector assay (anti-CD3 activated ECs, luciferase). The data set is classed as cell-based, human. The note with it: anti-CD3 with sPD-L1 (wt or mutein), 24 h, luciferase reporter. (In general: A reporter such as luciferase makes a cellular process visible.)

Procedure: To evaluate the potential of BMS compounds in abrogating the inhibitory effect of sPD-L1 on the activation of T cells, sPD-L1 was pre-incubated with tested compounds and presented to ECs together with the anti-CD3-activating antibody.
For the evaluation of the BMS impact on T cell inhibition by soluble PD-L1, the ECs were stimulated with the anti-CD3 antibody in the presence of the recombinant human sPD-L1. For this, the 96-well white flat bottom plates were coated overnight at 4°C with 5 μg/ml of the anti-CD3 antibody or the isotype control solution in PBS. […] Then, 15 μl of the solution was added to each well of the antibody-coated plate. ECs were centrifuged and diluted to 50 000 per ml, and 60 μl of the cell solution was added to each well. The final concentration of sPD-L1 was 10 μg/ml (0.6 μM). The final concentrations of the BMS compounds were: 0.12, 0.3, 1.2 and 3 μM, giving the following BMS:sPD-L1 molar ratios: 1:5, 1:2, 2:1 and 5:1. The cells were cultured for 24 h and the luciferase activity assay was performed using the Bio-Glo Luciferase Assay System (Promega) according to the manufacturer's instructions.

B1: sPD-L1: recombinant human soluble PD-L1 (residues 18–134, C-terminal His-tag) (protein)
chain: AFTVTVPKDLYVVEYGSNMTIECKFPVEKQLDLAALIVYWEMEDKNIIQFVHGEEDLKVQHSSYRQRARLLKDQLSLGNAALQITDVKLQDAGVYRCMISYGGADYKRITVKVNAPY
modifications: NTA-Atto 647 N fluorescent dye on the His-tag (flow cytometry only); uniform 15N labelling (NMR titration with compounds only); left off: His-tag, C-terminal, kept
Take B1: the “effect of soluble PD-L1 protein on anti-CD3 mediated activation of ECs” value is “decreased reporter expression to about half”.
